In patent US7851436:

Biological target: integrins αVβ3 and αVβ5
Assay: inhibition of Ch-1 cell adhesion to coated PIIBNP by synthetic peptide (FIG. 3C)

Binder | IC50 [µM]
GRGDNP [synthetic GRGDNP peptide] | 10
GRADNP [synthetic GRADNP peptide] | 60
